Measured values published in patent US20190367620A1 (Merck KGaA, published 2019).
Substitutions are numbered along the chain they refer to.

Legend:
Assay in all cases: SPR as in Example 1.8
[1] = biological target: T1, human FGFR1b-IIIb extracellular domain with a HIS tag (human)
T1 construct: also called huFGFR1b-IIIb; hFGFR1b-IIIb
T1 chain: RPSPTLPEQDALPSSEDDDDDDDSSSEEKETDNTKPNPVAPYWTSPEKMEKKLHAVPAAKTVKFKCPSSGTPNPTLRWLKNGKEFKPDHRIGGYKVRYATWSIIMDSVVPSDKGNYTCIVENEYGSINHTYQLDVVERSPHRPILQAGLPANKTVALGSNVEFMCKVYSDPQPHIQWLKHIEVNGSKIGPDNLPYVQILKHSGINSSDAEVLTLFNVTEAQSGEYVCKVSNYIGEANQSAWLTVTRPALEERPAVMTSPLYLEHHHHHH
Method: (§1) Binding affinities of anti-FGFR1 antibodies to FGFR1 were measured by Surface Plasmon Resonance (SPR) using a GE Healthcare BIAcore 4000 instrument as follows. Goat anti-human Fc antibody (Jackson ImmunoResearch Laboratories #109-005-098) was first immobilized on BIAcore carboxymethylated dextran CM5 chip using direct coupling to free amino groups following the procedure described by the manufacturer. Antibodies were then captured on the CM5 biosensor chip to achieve approximately 200 response units (RU). Binding measurements were performed using the running HBS-EP+ buffer. A 2-fold dilution series of His-tagged FGFR1 proteins were injected at a flow rate of 30 μl/min at 25° C. Association rates (kₒₙ, per mol/s) and dissociation rates (koff, per s) were calculated using a simple 1:1 Langmuir binding model (Biacore 4000 Evaluation Software). The equilibrium dissociation constant (KD, mol) was calculated as the ratio of koff/kₒₙ.
(§2) To obtain a finer, residue-level mapping of the epitope and to complement the HD exchange data, molecular modelling and manual inspection of the crystal structure of FGFR1 [(Beenken et al. 2012); PDB record 3OJV] was used to select solvent exposed residues within and around the epitope identified by HD exchange. The selected residues were mutated either to alanine (large to small) or to glycine if the selected residue was alanine. In total 35 point mutants were designed, expressed and purified in HEK cells, and tested for binding to mAb #A08 using surface plasmon resonance as described in Example 1.8. The affinity of the antibody for wild-type and each mutant was determined and used to calculate the contribution of each epitope residue to the binding energy.

[2] = biological target: T2, FGFR1 D2 point mutant S45A (human, UniProt P11362 22-254)
T2 chain: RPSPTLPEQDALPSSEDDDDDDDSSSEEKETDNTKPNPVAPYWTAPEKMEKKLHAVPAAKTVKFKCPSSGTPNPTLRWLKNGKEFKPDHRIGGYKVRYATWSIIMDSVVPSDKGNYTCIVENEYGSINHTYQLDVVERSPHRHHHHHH
Method: as §1, §2

[3] = biological target: T3, FGFR1 D2 point mutant K48A (human, UniProt P11362 22-254)
T3 chain: T2 chain with A45S, K48A
Method: as §1, §2

[4] = biological target: T4, FGFR1 D2 point mutant K51A (human, UniProt P11362 22-254)
T4 chain: T2 chain with A45S, K51A
Method: as §1, §2

[5] = biological target: T5, FGFR1 D2 point mutant L53A (human, UniProt P11362 22-254)
T5 chain: T2 chain with A45S, L53A
Method: as §1, §2

[6] = biological target: T6, FGFR1 D2 point mutant K65A (human, UniProt P11362 22-254)
T6 chain: T2 chain with A45S, K65A
Method: as §1, §2

[7] = biological target: T7, FGFR1 D2 point mutant D88A (human, UniProt P11362 22-254)
T7 chain: T2 chain with A45S, D88A
Method: as §1, §2

[8] = biological target: T8, FGFR1 D2 point mutant S102A (human, UniProt P11362 22-254)
T8 chain: T2 chain with A45S, S102A
Method: as §1, §2

[9] = biological target: T9, FGFR1 D2 point mutant I104A (human, UniProt P11362 22-254)
T9 chain: T2 chain with A45S, I104A
Method: as §1, §2

[10] = biological target: T10, FGFR1 D2 point mutant D106A (human, UniProt P11362 22-254)
T10 chain: T2 chain with A45S, D106A
Method: as §1, §2

B1: mAb #A08 (antibody, V domains shown)
VH: EVQLQESGPGLVKPSGTLSLTCAVSGGSISSNNWWSWVRQPPGKGLEWIGEIYHSGSTSYNPSLKSRVTISVDKSKNQFSLKLNSVTAADTAVYYCARGTDWFDPWGQGTLVTVSS
VL: QAVLTQPPSVSVAPGQTARITCGGNNIGSESVHWYQQKPGQAPVLVVYDDSDRPSGIPERFSGSNSGNTATLTISRVEAGDEADYYCQVWDSTSDHRVFGGGTKLTVL
notes: Only variable domains are tied to the name mAb #A08 (hit); also called #A08 hit; mAb #08
Question: What does the source list for B1?
Answer: Kd [1]: 0.47 nM; Kd [2]: 0.21 nM; Kd [3]: 0.09 nM; Kd [4]: 0.31 nM; Kd [5]: 0.29 nM; Kd [6]: 0.18 nM; Kd [7]: 0.16 nM; Kd [8]: 0.16 nM; Kd [9]: 0.93 nM; Kd [10]: 4.93 nM
